The values that follow come from patent US20220332804A1 (CSL INNOVATION, published 2022).

Common to all, as to test: SPR; KD relative to WT C2;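 further: biacore SPR at 37 °C, anti-C2 mAbs captured on an anti-human IgG chip, alanine or serine C2 surface mutants tested, KD from 1:1 fit compared with wild-type C2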
The target in test [1] is T1, human C2 T317A (human, UniProt P06681 21-752).
T1 sequence: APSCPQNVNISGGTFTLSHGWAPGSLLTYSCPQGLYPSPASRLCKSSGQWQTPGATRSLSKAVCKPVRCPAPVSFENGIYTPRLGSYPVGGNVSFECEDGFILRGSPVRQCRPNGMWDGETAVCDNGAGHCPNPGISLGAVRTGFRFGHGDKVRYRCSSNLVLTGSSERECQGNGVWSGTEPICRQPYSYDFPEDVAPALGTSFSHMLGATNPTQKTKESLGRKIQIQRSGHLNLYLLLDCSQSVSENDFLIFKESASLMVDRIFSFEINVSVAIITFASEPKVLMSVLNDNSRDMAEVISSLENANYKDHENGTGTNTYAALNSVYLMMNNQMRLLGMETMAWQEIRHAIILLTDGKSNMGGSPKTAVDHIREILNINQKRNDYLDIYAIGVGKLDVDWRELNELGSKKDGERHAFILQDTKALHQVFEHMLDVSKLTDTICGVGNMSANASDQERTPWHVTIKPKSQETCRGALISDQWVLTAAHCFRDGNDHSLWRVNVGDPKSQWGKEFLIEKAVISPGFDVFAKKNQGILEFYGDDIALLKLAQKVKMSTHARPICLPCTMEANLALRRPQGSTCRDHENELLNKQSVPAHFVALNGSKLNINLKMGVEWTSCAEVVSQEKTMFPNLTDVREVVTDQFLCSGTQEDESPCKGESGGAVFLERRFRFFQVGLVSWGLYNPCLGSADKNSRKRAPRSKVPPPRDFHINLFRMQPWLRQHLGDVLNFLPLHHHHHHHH

The target of test [2] is T2, human C2 N325A (human, UniProt P06681 21-752).
T2 sequence: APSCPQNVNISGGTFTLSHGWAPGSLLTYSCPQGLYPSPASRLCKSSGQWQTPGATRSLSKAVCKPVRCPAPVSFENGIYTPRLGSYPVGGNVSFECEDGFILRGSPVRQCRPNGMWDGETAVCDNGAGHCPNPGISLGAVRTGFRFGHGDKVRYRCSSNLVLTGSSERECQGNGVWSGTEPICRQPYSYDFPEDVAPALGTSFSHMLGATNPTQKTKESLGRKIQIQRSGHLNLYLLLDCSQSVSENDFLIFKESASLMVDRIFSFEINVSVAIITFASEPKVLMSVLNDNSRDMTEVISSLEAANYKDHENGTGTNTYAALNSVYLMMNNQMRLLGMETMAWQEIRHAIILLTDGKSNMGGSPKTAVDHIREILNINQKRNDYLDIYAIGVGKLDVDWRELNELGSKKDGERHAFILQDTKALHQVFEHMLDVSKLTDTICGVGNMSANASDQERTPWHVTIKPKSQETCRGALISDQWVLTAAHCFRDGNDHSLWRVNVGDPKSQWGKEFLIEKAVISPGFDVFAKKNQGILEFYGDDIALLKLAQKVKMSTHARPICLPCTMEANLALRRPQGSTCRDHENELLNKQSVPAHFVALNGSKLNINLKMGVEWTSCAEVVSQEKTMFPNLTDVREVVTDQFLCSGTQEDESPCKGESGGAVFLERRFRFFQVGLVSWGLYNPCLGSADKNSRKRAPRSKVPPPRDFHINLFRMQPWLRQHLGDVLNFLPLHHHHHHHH

For test [3], the target named is T3, human C2 N424A (human, UniProt P06681 21-752).
T3 sequence: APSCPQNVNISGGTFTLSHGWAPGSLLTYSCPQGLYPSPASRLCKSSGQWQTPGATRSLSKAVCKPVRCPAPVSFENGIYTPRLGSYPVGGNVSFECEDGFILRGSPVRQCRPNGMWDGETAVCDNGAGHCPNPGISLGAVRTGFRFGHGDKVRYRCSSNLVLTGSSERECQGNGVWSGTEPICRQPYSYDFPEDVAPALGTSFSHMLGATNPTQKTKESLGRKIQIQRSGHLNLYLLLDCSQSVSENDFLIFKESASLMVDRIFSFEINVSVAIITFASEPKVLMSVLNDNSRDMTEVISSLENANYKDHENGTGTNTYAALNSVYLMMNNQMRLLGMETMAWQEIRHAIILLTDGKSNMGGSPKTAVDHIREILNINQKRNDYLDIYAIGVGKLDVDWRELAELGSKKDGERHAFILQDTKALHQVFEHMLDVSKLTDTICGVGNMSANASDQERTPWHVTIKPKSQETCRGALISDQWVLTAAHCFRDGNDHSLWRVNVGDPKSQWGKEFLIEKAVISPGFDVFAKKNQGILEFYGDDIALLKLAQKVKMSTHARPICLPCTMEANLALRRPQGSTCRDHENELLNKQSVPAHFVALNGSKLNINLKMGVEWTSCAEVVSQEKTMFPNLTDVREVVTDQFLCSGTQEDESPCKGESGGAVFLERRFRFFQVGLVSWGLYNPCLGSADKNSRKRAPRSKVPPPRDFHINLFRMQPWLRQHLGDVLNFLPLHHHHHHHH

In test [4] the target is T4, human C2 E476A (human, UniProt P06681 21-752).
T4 sequence: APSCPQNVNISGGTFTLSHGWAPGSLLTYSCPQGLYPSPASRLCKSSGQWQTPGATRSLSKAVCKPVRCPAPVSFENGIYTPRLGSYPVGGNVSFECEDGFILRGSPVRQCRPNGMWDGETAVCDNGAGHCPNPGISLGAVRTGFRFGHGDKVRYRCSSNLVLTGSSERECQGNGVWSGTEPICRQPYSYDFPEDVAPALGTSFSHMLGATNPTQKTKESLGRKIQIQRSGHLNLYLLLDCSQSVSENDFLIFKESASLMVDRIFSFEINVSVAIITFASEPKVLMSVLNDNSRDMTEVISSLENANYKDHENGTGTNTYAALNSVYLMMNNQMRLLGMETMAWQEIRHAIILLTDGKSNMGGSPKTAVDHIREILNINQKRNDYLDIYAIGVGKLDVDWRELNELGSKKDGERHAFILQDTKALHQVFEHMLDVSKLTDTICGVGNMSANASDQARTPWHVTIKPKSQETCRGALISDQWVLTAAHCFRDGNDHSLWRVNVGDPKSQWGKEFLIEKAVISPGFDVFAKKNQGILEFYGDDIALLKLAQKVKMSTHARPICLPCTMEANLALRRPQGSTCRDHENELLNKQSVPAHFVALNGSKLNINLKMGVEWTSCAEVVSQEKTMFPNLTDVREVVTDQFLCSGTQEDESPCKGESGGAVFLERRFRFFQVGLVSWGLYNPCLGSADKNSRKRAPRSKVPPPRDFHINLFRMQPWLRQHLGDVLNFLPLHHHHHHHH

B1: RF16-214 (antibody, V domains shown)
VH: EVQLLESGGGLVQPGGSLRLSCAASGFTFSWYQMMWVRQAPGKGLEWVSRIYPSGGGTAYADSVKGRFTISRDNSKNTLYLQMNSLRAEDTAVYYCARDAGYGDNWGQGTLVTVSS
VL: QSALTQPPSVSVSPGQTASITCSGDKLGEKYASWYQQKAGQSPVMVIYQDRKRPSGIPERFSGSNSGNTATLTISGTQAMDEADYYCQAWDTRAVVFGGGTKLTVLG
Regarding B1, the Fold diff amounted to 1 fold in test [1], 11 fold in test [2], 1 fold in test [3] and 2 fold in test [4].
